According to patent publication US10308606B2, “PSMA-targeted NIR dyes and their uses” (On Target Laboratories, LLC, priority 2016, dated 2019):

Experiments:
PSMA = target: T1, PSMA (Homo sapiens, UniProt Q04609); experiment: In vitro binding: relative binding affinity versus DUPA-FITC on PSMA-positive 22Rv1 cells; details: 1 h at 37° C., 100 nM DUPA-FITC, FIG. 2, read-out: dissociation constant (KD)
T1 construct: PSMA-positive 22Rv1 human prostate cancer cells; endogenous in cells; host or cells: 22Rv1 human prostate cancer cells
T1 sequence (Q04609 whole entry): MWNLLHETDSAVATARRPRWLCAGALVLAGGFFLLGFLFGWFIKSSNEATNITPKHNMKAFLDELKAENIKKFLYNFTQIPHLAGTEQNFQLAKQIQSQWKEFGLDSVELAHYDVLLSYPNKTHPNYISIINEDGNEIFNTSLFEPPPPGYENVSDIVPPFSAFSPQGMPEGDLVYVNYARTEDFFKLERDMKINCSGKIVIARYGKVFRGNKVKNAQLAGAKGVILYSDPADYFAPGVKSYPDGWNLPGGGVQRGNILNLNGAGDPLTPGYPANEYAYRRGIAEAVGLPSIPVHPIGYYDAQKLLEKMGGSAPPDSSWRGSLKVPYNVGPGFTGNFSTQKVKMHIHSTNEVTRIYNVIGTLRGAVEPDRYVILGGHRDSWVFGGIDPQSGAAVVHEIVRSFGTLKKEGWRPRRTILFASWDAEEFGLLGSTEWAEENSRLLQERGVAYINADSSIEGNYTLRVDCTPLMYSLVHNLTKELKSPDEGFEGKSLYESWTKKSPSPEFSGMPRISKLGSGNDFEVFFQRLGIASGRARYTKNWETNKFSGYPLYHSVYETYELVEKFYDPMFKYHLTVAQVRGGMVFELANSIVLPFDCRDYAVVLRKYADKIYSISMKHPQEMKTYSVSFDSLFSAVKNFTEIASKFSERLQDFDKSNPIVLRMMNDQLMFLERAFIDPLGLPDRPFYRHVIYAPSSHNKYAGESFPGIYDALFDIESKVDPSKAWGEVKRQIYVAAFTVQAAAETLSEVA
Procedure: FIG. 2 illustrates the relative binding affinity of 1: OTL78 with respect to DUPA-FITC (14). PSMA-positive 22Rv1 human prostate cancer cells were incubated for 1 h at 37° C. in the presence of 100 nM DUPA-FITC with increasing concentrations of 1. Media was then removed, washed with fresh media three times, and replaced with PBS. Cell bound fluorescence was assayed as using flow cytometry.
General Methods: 22Rv1 cells (a human prostate cancer cells) were grown as a monolayer using RPMI medium (Gibco, NY) 10% heat-inactivated fetal bovine serum (Atlanta Biological, GA) and 1% penicillin streptomycin (Gibco, NY) in a 5% carbon dioxide: 95% air-humidified atmosphere at 37° C. for at least six passages before they were used for the assays.
In vitro binding and specificity: 22Rv1 cells were seeded into a T75 flask and allowed to form a monolayer over 24 h. After trypsin digestion, release cells were transferred into centrifuge tubes (1×10^6 cells/tube) and centrifuged. […] After rinsing with fresh medium (2×1.0 mL) and PBS (1×1.0 mL), cells were resuspended in PBS (1.0 mL) and cell bound fluorescence was analyzed (100,000 cells/sample) using a fluorometer (Cary, Agilent). The relative binding affinities were calculated using a plot of % cell bound fluorescence versus the log concentration of the test article using GraphPad Prism 4.

[1] = test system: 22Rv1 human prostate tumor xenograft; experiment: Time dependent whole body imaging; format: in vivo, mouse; details: 10 nmol, FIG. 6
Procedure: FIGS. 6A-6F: Overlay of whole body or half body fluorescence image over white light images after adjusting the threshold. 22Rv1 human prostate tumor xenograft bearing mouse was injected with 10 nmol of 1: OTL78 and imaged with IVIS imager (ex=745 nm, em=ICG, exposure time=1 s) at different time intervals.
Settings for imaging:—lamp level: medium; excitation: 745 nm; emission: ICG(830 nm); epi illumination; binning: 4 (M), FOV=12.5; f-stop=2; acquisition time=1 s. For time dependent studies, animals were imaged under anesthesia using isoflurane. Whole body imaging (intact tumor) experiments was then performed using a Caliper IVIS Lumina II Imaging Station with Living Image 4.0 software (PerkinElmer Inc, MA).

Compound	Kd (PSMA) [nM]	time remained in the tumor [1]	time to saturation in PSMA-positive tumors [1] [h]
DUPA_PEG2—Phe_Tyr-S0456 [compound 5]	1		
CC1(C)C(/C=C/C2=C(Oc3ccc(C[C@H](NC(=O)[C@H](Cc4ccccc4)NC(=O)CCOCCOCCNC(=O)CC[C@H](NC(=O)N[C@@H](CCC(=O)O)C(=O)O)C(=O)O)C(=O)O)cc3)C(=C/C=C3/N(CCCCS(=O)(=O)O)c4ccc(S(=O)(=O)O)cc4C3(C)C)/CCC2)=[N+](CCCCS(=O)(=O)[O-])c2ccc(S(=O)(=O)O)cc21 [1: OTL78, DUPA_PEG2_Phe_Tyr-50456]		over 24 h	≤ 2
